This passage reports Kd and EC50 results from patent publication US20250011430A1.

Changes are numbered by the printed parent chain.

To fix the notation:
B1: humanized 26B6 (antibody, V domains shown)
VH: EVQLVQSGAEVKKPGASVKVSCKASGYTFTEYTMHWVRQAPGQGLEWIGGINPNTGGTTYNQKFNGRVTMTRDTSISTAYMELSSLRSEDTAVYYCTRPYRDDGGFHWYFDVWGQGTLVTVSS
VL: EIVLTQSPATLSLSPGERATLSCSASSSVSYMQWYQQKPGLAPRLLIYDTSKLTSGIPDRFSGSGSGTDFTLTISRLEPEDFAVYYCQQWSSNPLTFGGGTKVEIKR
B2: humanized 6F7 with light chain variable region LV1 (antibody, V domains shown)
VH: EVQLVESGGGLVQPGGSLRLSCAASGFTFTDYYMSWVRQAPGKGLEWVAFIRNKANGYTTEYSASVKGRFTISRDDSKNSLYLQMNSLRAEDTAVYYCARDSHYRPFAYWGQGTLVTVSS
VL: DIVMTQSPLSLPVTPGEPASISCKSSQSLLNSGNQNNYLTWYLQKPGQSPQLLIYLASTRDSGVPDRFSGSGSGTDFTLKISRVEAEDVGVYYCQNDYTYPLTFGGGTKVEIKR
B3: humanized 6F7 with light chain variable region LV2 (antibody, V domains shown)
VH: B2 VH
VL: DIVMTQSPDSLAVSLGERATINCKSSQSLLNSGNQNNYLTWYQQKPGQPPKLLIYLASTRDSGVPDRFSGSGSGTDFTLTISSLQAEDVAVYYCQNDYTYPLTFGGGTKVEIKR
B4: huM30 (antibody, from another filing, V domains shown)
VH: QVQLVQSGAEVKKPGSSVKVSCKASGYTFTNYVMHWVRQAPGQGLEWMGYINPYNDDVKYNEKFKGRVTITADESTSTAYMELSSLRSEDTAVYYCARWGYYGSPLYYFDYWGQGTLVTVSS
VL: EIVLTQSPATLSLSPGERATLSCRASSRLIYMHWYQQKPGQAPRPLIYATSNLASGIPARFSGSGSGTDFTLTISSLEPEDFAVYYCQQWNSNPPTFGQGTKVEIK
B5: anti-B7H3 antibody 23H1 (antibody, V domains shown)
VH: EVKLVESGGGLVQPGGSLRLSCATSGFTFTDYYMSWVRQPPGKALEWLGFIRNKVNDYTTEYSVSVKGRFTISRDNSQTILYLQMNTLRAEDSATYYCARDSPYRPFAYWGQGTLVTVSA
VL: DIVMTQSPSSLTVTAGENVTMSCKSSQTLLNNGNQKNFLTWYQQKPGQPPKLLIYLASTRESGVPDRFTGSGSGTDFTLTISSVQAEDLAVYYCQNDYTYPLTFGAGTKLELKR
B6: anti-B7H3 antibody 6F7 (antibody, V domains shown)
VH: B5 VH with V55A, D57G, V64A, R74S, N76D, T79S, P103H
VL: B5 VL with V3Q, N18K, T28S, N32S, K36N, F38Y, E61D
B7: anti-B7H3 antibody 2B8 (antibody, V domains shown)
VH: QVQLQQSGPELVRPGVSVKISCKVSGYTFTDGAMHWVKRSHAKSLEWIGIINTNSGNTNYNQKFQGKATMTVDKSSSTAYMELARLTSEDSAIYYCARGVFYYGYGAWFAYWGQGTLVTVSA
VL: DVQITQSPSYLTASPGETIIINCRASKTISNYLAWYQEKPGKTNKLLIYSGSTLQSGIPSRFSGSGSDTDFTLTISSLEPEDFAMYYCQQHHEYPLTFGAGTKLELKR
B8: anti-B7H3 antibody 26B6 (antibody, V domains shown)
VH: EVQLQQSGPELVKPGASVKISCKTSGYAFTEYTMHWVKQSQGKSLEWIGGINPNTGGTTYNQKFNGKATLTVDRSSSTAYMELRSLTSEDSAVYYCTRPYRDDGGFHWYFDVWGAGTAVTVSS
VL: QIVLTQSPAVMSTSPGEKVTMTCSASSSVSYMQWYQQKSGTSPKRWIYDTSKLTSGVPARFSGSGSGTSYSLTISSMEAEDAATYYCQQWSSNPLTFGAGTKLELKR

The first assay deals with human B7H3 ECD-His (human) (UniProt Q5ZPR3). Briefly: ForteBio BLI. On the technique in general: In BLI a coated tip is dipped into the sample, and binding shifts an interference pattern.
One may read the Kd as the free concentration of one partner at which half of the binding sites on the other are occupied at equilibrium, for simple one-to-one binding. Turning to B1, the dissociation constant Kd was 0.753 nM.

In the case of B2, the Kd was found to be 37 nM.

B3 showed a Kd of 14.2 nM.

With B4, the Kd came to 0.277 nM.

For the next assay, the target named is T1, B7H3 on cells (B7H3 on HEK293 cells; B7H3 expressed from plasmid on HEK-293T and QT6 cells) (human) (UniProt Q5ZPR3).
T1 sequence (looked up): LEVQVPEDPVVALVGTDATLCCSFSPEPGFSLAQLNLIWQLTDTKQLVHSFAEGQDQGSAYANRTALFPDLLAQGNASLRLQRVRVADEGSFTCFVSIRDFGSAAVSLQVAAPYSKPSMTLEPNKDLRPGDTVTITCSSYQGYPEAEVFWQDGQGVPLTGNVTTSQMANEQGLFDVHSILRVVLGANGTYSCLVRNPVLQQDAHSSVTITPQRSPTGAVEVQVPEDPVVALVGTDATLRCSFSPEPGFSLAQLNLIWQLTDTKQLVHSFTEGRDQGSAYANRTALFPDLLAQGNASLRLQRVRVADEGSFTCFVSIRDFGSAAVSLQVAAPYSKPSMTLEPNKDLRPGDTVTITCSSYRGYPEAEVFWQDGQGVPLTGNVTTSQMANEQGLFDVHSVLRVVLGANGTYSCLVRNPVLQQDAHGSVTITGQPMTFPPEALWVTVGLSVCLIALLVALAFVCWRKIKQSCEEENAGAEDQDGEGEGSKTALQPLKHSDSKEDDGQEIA
Briefly: flow cytometry on HEK293 cells. (In general: Flow cytometry measures light scatter and fluorescence of single cells or particles in a stream.)
One may read the EC50 as the concentration giving half of the maximal effect. Higher therefore signals a need for much substance. As for B4, the EC50 is 0.0974 µg/mL.

A further assay concerns the target human B7H3 ECD-His (human) (UniProt Q5ZPR3). Put plainly: ForteBio BLI, antibody on AHQ sensor, 60 nM antigen, 1:1 model.
B5 registered a Kd of 0.685 nM.

Molecule B6 yielded a Kd of 0.537 nM.

Turning to B7, the Kd turned out to be 0.323 nM.

Turning to B8, the Kd came out at 0.435 nM.

For the molecule B4, the Kd is 0.346 nM. The Kd values of the last two molecules are within 1.5-fold of each other.
